T1: human CEACAM1 (human, UniProt P13688 35-526)
T1 construct: whole, on cells; also called CHO-CEACAM1
T1 sequence (looked up): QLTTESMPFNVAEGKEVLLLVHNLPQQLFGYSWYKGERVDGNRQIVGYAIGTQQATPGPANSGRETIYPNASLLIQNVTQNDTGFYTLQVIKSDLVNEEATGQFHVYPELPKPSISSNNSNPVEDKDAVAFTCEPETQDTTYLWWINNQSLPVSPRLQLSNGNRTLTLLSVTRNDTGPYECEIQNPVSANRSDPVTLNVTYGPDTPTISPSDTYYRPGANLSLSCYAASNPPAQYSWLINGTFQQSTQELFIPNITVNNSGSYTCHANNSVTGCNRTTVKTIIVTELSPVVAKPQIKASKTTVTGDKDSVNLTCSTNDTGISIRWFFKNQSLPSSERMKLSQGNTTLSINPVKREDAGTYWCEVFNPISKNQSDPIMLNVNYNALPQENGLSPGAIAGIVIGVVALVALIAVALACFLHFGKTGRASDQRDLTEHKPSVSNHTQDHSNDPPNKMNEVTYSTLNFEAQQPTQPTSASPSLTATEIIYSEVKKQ

T2: human CEACAM5 (human, UniProt P06731 35-685)
T2 construct: whole, on cells; Target on MKN-45 (DSMZ ACC409) and LS180 (ATCC CL-187) cells; also called carcinoembryonic antigen-related cell adhesion molecule 5; CD66e
T2 sequence (looked up): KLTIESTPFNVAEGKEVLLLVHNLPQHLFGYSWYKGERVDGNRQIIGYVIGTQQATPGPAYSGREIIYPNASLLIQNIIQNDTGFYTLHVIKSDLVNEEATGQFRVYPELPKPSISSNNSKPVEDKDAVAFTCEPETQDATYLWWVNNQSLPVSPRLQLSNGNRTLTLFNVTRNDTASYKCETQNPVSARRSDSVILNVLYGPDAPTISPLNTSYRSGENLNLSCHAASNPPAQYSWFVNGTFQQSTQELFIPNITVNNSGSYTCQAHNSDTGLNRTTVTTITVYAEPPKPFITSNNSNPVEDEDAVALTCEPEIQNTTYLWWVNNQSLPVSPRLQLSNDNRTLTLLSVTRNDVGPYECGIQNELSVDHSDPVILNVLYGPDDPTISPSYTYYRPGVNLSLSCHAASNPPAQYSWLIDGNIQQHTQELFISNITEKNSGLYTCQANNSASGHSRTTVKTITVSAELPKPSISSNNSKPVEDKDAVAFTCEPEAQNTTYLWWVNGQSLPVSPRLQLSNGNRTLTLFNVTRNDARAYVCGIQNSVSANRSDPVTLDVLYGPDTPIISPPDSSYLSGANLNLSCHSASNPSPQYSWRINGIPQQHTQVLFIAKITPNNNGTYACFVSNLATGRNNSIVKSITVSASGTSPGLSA

T3: human CEACAM6 (human, UniProt P40199 35-320)
T3 construct: whole, on cells; also called CHO-CEACAM6
T3 sequence (looked up): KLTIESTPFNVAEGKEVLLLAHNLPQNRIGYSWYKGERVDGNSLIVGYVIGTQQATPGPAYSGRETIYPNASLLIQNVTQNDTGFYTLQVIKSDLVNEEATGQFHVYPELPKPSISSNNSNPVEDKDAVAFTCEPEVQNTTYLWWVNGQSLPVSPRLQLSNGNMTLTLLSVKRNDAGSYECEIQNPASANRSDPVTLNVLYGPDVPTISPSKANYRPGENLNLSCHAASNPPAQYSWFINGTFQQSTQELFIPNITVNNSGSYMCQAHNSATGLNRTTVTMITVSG


Tests used:
human CEACAM1 = target: T1, human CEACAM1; assay: FACS on CHO cells overexpressing human CEACAM1
Experimental: (§1) Viability of CHO-CEACAM1 (CHO cells overexpressing human CEACAM1) and CHO-CEACAM6 (CHO cells overexpressing human CEACAM6) cells was checked. Then 100 μl of re-suspended target cells were seeded into a U-bottom plate (100′000 cells/well). The antibodies were diluted in FACS buffer. The plates were centrifuged for 4 min at 400×g and supernatant was removed. Then 25 µl/well of the diluted antibodies were added to the cells. The cells were incubated for 45 min at 4° C. After the incubation, cells were washed twice and 25 μl/well of diluted (1/100 in FACS buffer) PE anti-human Fc secondary antibody (Jackson Immuno Research, #109-116-170) or the directly labeled CD66 antibody (Clone B1.1/CD66, BD Bioscience, #551480) was added to the cells. The cells were incubated for 45 min at 4° C. After the incubation, cells were washed twice. Then cells were re-suspended in 150 μl/well of FACS buffer. Cell binding was measured on the BD LSRFortessa Flow Cytometer, the same day.

human CEACAM5 = target: T2, human CEACAM5; assay: FACS on MKN-45 cells expressing human CEACAM5
Experimental: 10 μl of a 1×10⁴ MKN-45 (DSMZ ACC409) cell suspension in assay buffer was seeded in all Wells of a 384 well polypropylene plate (Weidmann #23490-101). Then 10 μl of antibodies diluted in assay buffer (double concentrated), at a start concentration of 100 μg/ml, serially diluted 1:4 were added to the plate. After 90 minutes incubation at 4° C., 60 μl assay buffer was added followed by a centrifuge step (330×g, 5 min) and an aspirating step (BioTek washer 405H) where 60 μl of supernatant were discarded. 20 μl of detection antibody (Alpaca anti rabbit IgG Chromotek #srbAF647-1) diluted in assay buffer (double concentrated) to a final concentration of 0.5 μg/ml was added to all Wells followed by 1 hour incubation time at room temperature. The cells were then subjected to two washing steps with 40 μl and 60 μl assay buffer as described above and then resuspended in 20 μl assay buffer. Cell binding was measured on an iQue Screener Plus high throughput FACS device from Sartorius/Intellicyt.

human CEACAM6 = target: T3, human CEACAM6; assay: FACS on CHO cells overexpressing human CEACAM6
Experimental: as §1

Row | Binder | binding result (human CEACAM1) | EC50 (human CEACAM5) | binding result (human CEACAM6)
1 | P1AI5017 (antibody, human IgG1, V domains shown) VH: EVQLVESGGGLVQPGGSLRLSCAASGFNIKDTYMHWVRQAPGKGLEWVGRIDPANGNSKYADSVKGRFTISADTSKNTAYLQMNSLRAEDTAVYYCAPFGYYVSDYAMAYWGQGTTVTVSS VL: EIVLTQSPATLSLSPGERATLSCRAGESVDIFGVGFLHWYQQKPGQAPRLLIYRGSNRATGIPARFSGSGSGTDFTLTISSLEPEDFAVYYCQQTSEYPYTFGQGTKLEIK | no binding | 0.762 µg/mL | no binding
2 | P1AI5018 (antibody, human IgG1, V domains shown) VH: EVQLVESGGGLVQPGGSLRLSCAASGFNIKDTYMHWVRQAPGKGLEWVGRIDPANGNSKYADSVKGRFTISADTSKNTAYLQMNSLRAEDTAVYYCAPFGYYVSDYAMAYWGQGTTVTVSS VL: EIVLTQSPATLSLSPGERATLSCRAGESVDIFGVGFLHWYQQKPGQAPRLLIYRGSNRATGIPARFSGSGSGTDFTLTISSLEPEDFAVYYCQQTTEYPYTFGQGTKLEIK | no binding | 0.65 µg/mL | no binding

More lines, now with the values ahead:

Row | binding result (human CEACAM1) | EC50 (human CEACAM5) | binding result (human CEACAM6) | Binder
3 | no binding | 0.588 µg/mL | no binding | P1AI5016 (antibody, human IgG1, V domains shown) VH: EVQLVESGGGLVQPGGSLRLSCAASGFNIKDTYMHWVRQAPGKGLEWVGRIDPANGNSKYADSVKGRFTISADTSKNTAYLQMNSLRAEDTAVYYCAPFGYYVSDYAMAYWGQGTTVTVSS VL: EIVLTQSPATLSLSPGERATLSCRAGESVDIFGVGFLHWYQQKPGQAPRLLIYRGSNRATGIPARFSGSGSGTDFTLTISSLEPEDFAVYYCQQTVEYPYTFGQGTKLEIK
4 | no binding | 2.42 µg/mL | no binding | P1AI5031 (antibody, human IgG1, V domains shown, also called 24_A55M) VH: EVQLVESGGGLVQPGGSLRLSCAASGFNIKDTYMHWVRQAPGKGLEWVGRIDPANGNSKYADSVKGRFTISADTSKNTAYLQMNSLRAEDTAVYYCAPFGYYVSDYAMAYWGQGTTVTVSS VL: EIVLTQSPATLSLSPGERATLSCRAGESVDIFGVGFLHWYQQKPGQAPRLLIYRGSNRMTGIPARFSGSGSGTDFTLTISSLEPEDFAVYYCQQTNEDPYTFGQGTKLEIK

— patent US20260071002A1 (Hoffmann-La Roche, published 2026)
